Test results taken from article PMC3016346.

Legend:
Assay in all cases: two-hybrid; Matchmaker Gal4 system 3 in AH109; beta-galactosidase solution assay with ONPG on lysed cells from liquid culture; activity as percent of p53-TAg (100%); mean of at least three experiments
[1] = target: SeMV MP NΔ49 deletion mutant, Gal4 DNA-binding domain fusion (pGBKT7 NΔ49) (Sesbania mosaic virus)
[2] = target: Sesbania mosaic virus movement protein, Gal4 DNA-binding domain fusion (pGBK T7 MP) (Sesbania mosaic virus)
[3] = target: SeMV MP CΔ38 deletion mutant, Gal4 DNA-binding domain fusion (pGBK T7) (Sesbania mosaic virus)

Substance	beta-galactosidase activity, percent of p53-TAg [1] [%]	beta-galactosidase activity, percent of p53-TAg [2] [%]	beta-galactosidase activity, percent of p53-TAg [3] [%]
Sesbania mosaic virus 10-kDa protein (P10), Gal4 activation domain fusion (pGAD T7 P10) (natural protein)	14	97.1	
Sesbania mosaic virus coat protein (CP), Gal4 activation domain fusion (pGAD T7 CP) (natural protein)		70	
Sesbania mosaic virus viral protein genome linked (VPg), Gal4 activation domain fusion (pGAD T7 VPg) (natural protein)		95.5	83.1
